These are literature values, as cited in article PMC6800417.

This data set deals with EGFR (Homo sapiens) (UniProt P00533).

111In-DTPA-hEGF (from UniProt P01133): the Kd (usually the concentration at which binding is half-saturated) is 1.3 nM.
